Reference: US20250376539A1 (KIRA PHARMACEUTICALS SUZHOU, published 2025)
Positions count from the first letter of the chain named. Blank lines part the entries; values can stand above or below the binder they belong to.

What was measured:
[1] = biological target: T1, recombinant cynomolgus (cyno) complement C2 (XP_005553508.1), C-terminal 6His-tag, made in house (CHO cell … (cynomolgus monkey (Macaca fascicularis), UniProt P06681 21-752 (human entry))); assay: ELISA
T1 construct: also called cyno C2; Cyno C2
T1 chain: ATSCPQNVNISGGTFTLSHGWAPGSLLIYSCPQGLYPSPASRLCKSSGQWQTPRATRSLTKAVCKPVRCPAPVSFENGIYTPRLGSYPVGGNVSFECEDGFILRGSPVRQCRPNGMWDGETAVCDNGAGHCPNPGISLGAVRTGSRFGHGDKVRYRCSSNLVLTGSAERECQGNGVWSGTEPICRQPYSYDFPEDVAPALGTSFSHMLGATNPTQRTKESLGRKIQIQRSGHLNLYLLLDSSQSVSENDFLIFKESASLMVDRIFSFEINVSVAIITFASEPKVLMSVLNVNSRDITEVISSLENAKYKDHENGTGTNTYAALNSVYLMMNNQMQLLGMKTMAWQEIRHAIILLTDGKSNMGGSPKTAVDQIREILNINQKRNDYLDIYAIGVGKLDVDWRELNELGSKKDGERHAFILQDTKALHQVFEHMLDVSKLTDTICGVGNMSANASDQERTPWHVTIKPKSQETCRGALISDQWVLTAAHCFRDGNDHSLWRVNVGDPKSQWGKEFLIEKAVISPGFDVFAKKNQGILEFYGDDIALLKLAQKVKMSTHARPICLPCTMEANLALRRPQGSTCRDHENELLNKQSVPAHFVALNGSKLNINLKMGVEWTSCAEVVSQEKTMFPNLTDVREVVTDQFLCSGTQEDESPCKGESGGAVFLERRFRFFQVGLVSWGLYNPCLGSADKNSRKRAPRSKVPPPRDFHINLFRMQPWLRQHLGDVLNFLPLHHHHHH

[2] = biological target: T2, recombinant human complement C2 (NP_000054.2), C-terminal 6His-tag, made in house (CHO cell expression) (human, UniProt P06681 21-752); assay: ELISA
T2 construct: a linker before the tag is not described; also called human C2; Human C2
T2 sequence: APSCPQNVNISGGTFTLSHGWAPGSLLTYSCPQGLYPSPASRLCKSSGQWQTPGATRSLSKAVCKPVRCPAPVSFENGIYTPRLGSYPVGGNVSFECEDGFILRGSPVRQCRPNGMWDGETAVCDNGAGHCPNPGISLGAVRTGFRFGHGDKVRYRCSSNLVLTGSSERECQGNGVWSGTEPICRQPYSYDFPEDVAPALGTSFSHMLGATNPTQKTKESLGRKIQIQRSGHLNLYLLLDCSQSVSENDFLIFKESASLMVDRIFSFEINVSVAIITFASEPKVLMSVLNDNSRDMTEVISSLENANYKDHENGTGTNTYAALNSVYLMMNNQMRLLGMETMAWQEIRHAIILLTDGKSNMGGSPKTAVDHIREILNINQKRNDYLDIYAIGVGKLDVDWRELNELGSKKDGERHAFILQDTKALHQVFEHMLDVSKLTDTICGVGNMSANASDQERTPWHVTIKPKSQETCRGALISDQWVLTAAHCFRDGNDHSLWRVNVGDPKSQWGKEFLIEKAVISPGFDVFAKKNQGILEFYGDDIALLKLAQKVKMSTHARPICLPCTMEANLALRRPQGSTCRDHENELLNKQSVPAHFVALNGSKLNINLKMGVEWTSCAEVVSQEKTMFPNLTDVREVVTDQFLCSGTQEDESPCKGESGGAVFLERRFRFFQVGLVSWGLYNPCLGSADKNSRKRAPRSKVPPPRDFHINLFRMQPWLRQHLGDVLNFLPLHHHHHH

[3] = biological target: T3, recombinant cyno C2a, C-terminal 6His-tag, made in house (CHO cell expression) (cynomolgus monkey, UniProt P06681 244-752 (human entry)); assay: ELISA on cyno C2a, OD450nm against log Ab conc. (nmol/L)
T3 chain: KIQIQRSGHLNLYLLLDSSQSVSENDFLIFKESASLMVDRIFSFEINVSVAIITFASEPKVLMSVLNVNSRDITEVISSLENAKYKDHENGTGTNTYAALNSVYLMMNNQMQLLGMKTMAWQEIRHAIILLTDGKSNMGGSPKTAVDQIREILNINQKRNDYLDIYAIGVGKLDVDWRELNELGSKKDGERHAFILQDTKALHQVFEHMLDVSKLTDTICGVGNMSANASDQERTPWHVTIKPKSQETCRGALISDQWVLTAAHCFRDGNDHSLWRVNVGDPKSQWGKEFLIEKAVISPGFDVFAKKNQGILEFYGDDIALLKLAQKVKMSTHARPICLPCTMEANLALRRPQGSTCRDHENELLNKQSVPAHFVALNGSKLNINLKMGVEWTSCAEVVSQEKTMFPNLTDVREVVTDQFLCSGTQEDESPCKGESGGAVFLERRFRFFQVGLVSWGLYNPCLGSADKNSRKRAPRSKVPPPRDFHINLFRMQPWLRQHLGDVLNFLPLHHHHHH

[4] = biological target: T4, recombinant human C2a, C-terminal 6His-tag, made in house (CHO cell expression) (human, UniProt P06681 244-752); assay: ELISA on human C2a, OD450nm against log Ab conc. (nmol/L)
T4 sequence: T3 chain with S18C, V68D, I73M, K84N, Q112R, K117E, Q148H

[5] = biological target: T2, recombinant human complement C2 …; assay: BLI (Gator), antibody on probe; 600 s association at pH 7.4, 600 s dissociation at pH 7.4
Procedure: (§1) The histidine mutant constructs in Table 4 were tested for their pH-dependent dissociation from human C2. Probe-immobilized anti-C2 antibodies were incubated with C2 at pH 7.4 for 600s, followed by a 600s dissociation period in K Buffer at pH 7.4 or pH 5.8. The data were processed and analyzed by the Gator evaluation software.

[6] = biological target: T2, recombinant human complement C2 …; assay: BLI (Gator); ratio of dissociation at pH 5.8 to pH 7.4
Procedure: as §1

[7] = biological target: T2, recombinant human complement C2 …; assay: binding kinetics, neutral pH (BLI presumed)
[8] = biological target: T2, recombinant human complement C2 …; assay: BLI (Gator), antibody on probe; 600 s association at pH 7.4, 600 s dissociation at pH 5.8
Procedure: as §1

- EC50 [1]: 0.0397 nM
- EC50 [2]: 0.0408 nM
- binding result [3]: no binding (tested: 100 nmol/L)
- binding result [4]: no binding (tested: 100 nmol/L)
B1: anti-C2 antibody 83.16 (antibody, IgG4, V domains shown)
VH: QLQLQESGPGLVKSSETLSLTCTVSGGPISSSSYYWGWIRQPPGKGLEWIGTIYYSGRTYYNPSLKSRGTISVGTSKNQFSLKLSSVTAADTAVFYCAGGVGVTWDYWGQGTLVTVSS
VL: SYDLSQPLSVSVALGQTARITCGGNDIESKNVHWYQQRPGQAPVLVIYRNSNRPSGIPERFSGSNSGNTATLTISRGQGGDEADYYCQVWDSSTVIFGGGTKLTVL
notes: Recombinant

- EC50 [1]: 0.0521 nM
- EC50 [2]: 0.0512 nM
- binding result [3]: no binding (tested: 100 nmol/L)
- binding result [4]: no binding (tested: 100 nmol/L)
B2: anti-C2 antibody 34.5 (antibody, IgG4, V domains shown)
VH: QVQLQESGPGLVKPSQTLSLTCTVSGGSISRGGHQWTWIRQHPGKGLEWIGYIHHSGSTYYNPSLNDRLTILVDTPKNQFSLKLSSVTAADTAVYYCARWNLGSYGDYWGQGTLVTVSS
VL: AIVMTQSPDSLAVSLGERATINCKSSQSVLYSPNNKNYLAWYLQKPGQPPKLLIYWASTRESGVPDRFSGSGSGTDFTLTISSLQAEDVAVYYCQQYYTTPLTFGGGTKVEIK
notes: Recombinant

- EC50 [1]: 0.05 nM
- EC50 [2]: 0.0479 nM
- binding result [3]: no binding (tested: 100 nmol/L)
- binding result [4]: no binding (tested: 100 nmol/L)
B3: anti-C2 antibody 199.1 (antibody, IgG4, V domains shown)
VH: B2 VH with T37S, H42N, G44E, D67N
VL: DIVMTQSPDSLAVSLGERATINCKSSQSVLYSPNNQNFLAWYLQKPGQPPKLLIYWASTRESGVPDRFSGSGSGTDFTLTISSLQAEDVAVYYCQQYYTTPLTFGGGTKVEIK
notes: Recombinant

- Dissociation (%) pH 7.4 [5]: 5.1%
- Fold dissociation pH 5.8/pH 7.4 [6]: 11.1 fold
- Kd [7]: 0.33 nM
- koff [7]: 9.39e-05 s⁻¹
- kon [7]: 284000 M⁻¹ s⁻¹
- Dissociation (%) pH 5.8 [8]: 56.5%
B4: 3.2 H2-10 × L1-2 (antibody, V domains shown)
VH: EVQLLESGGGLVQPGGSLRLSCAASGFTFRHYAMSWVRQAPGKGLEWVSLISGSGASTHYADSVKGRFTISRDNSENMLYLQMNSLRAEDTAVYYCAKDSLAVAGSEYFQHWGQGTLVTVSS
VL: SYVLTQAPSVSVAPGQTARITCGHNYFGGKSVHWYQQRPGQAPVLVVYDDSDRPSGIPERFSGSKSGNTATLAISRVEAGDEAAYYCQVYDTSSDHWVFGGGTKLTVL
notes: Histidine mutant of 3.2

- EC50 [1]: 0.0682 nM
- EC50 [2]: 0.0514 nM
- binding result [3]: no binding (tested: 100 nmol/L)
- binding result [4]: no binding (tested: 100 nmol/L)
B5: anti-C2 antibody 48.14 (antibody, IgG4, V domains shown)
VH: B4 VH with T28K, R30S, H31Y, A56Y, H59Y, Y60F, E76K, M78T, L101I
VL: SYVLTQPPSVSVAPGQTARITCGGDNIGGKSVHWYQQKPGQAPVLVVYDDSDRPSGIPERFSGSDSGNTATLTISWVEAGDEADYYCQVWDDSSDHWVFGGGTKLTVL
notes: Recombinant

- EC50 [1]: 0.0869 nM
- EC50 [2]: 0.0576 nM
- binding result [3]: no binding (tested: 100 nmol/L)
- binding result [4]: no binding (tested: 100 nmol/L)
B6: anti-C2 antibody 39.4 (antibody, IgG4, V domains shown)
VH: B4 VH with R19S, A23T, R30S, L50V, H59F, M78T, L101I
VL: SYVLTQAPSVSVAPGQTARITCGGNNIGGKTVHWYQQKPGQAPMLVVYDDSDRPSGIPERFSGSKSGNMAILTISRVEAGDEADYYCQLYDIYSDHWVFGGGTKLTVL
notes: Recombinant

- Dissociation (%) pH 7.4 [5]: 5.45%
- Fold dissociation pH 5.8/pH 7.4 [6]: 10.4 fold
- Kd [7]: 0.329 nM
- koff [7]: 8.72e-05 s⁻¹
- kon [7]: 265000 M⁻¹ s⁻¹
- Dissociation (%) pH 5.8 [8]: 56.6%
B7: 3.2 H2-10 × L1-10 (antibody, V domains shown)
VH: B4 VH
VL: B4 VL with H24G, V32H
notes: Histidine mutant of 3.2

- Dissociation (%) pH 7.4 [5]: 6.42%
- Fold dissociation pH 5.8/pH 7.4 [6]: 10.4 fold
- Kd [7]: 0.41 nM
- koff [7]: 0.000112 s⁻¹
- kon [7]: 272000 M⁻¹ s⁻¹
- Dissociation (%) pH 5.8 [8]: 66.7%
B8: 3.2 H2-10 × L1-5 (antibody, V domains shown)
VH: B4 VH
VL: B4 VL with H24G, F27H
notes: Histidine mutant of 3.2

- Dissociation (%) pH 7.4 [5]: 7.61%
- Fold dissociation pH 5.8/pH 7.4 [6]: 9 fold
- Kd [7]: 0.42 nM
- koff [7]: 0.000119 s⁻¹
- kon [7]: 283000 M⁻¹ s⁻¹
- Dissociation (%) pH 5.8 [8]: 68.7%
B9: 3.2 H2-10 × L3-6 (antibody, V domains shown)
VH: B4 VH
VL: B4 VL with H24G, S93H
notes: Histidine mutant of 3.2

- Dissociation (%) pH 7.4 [5]: 5.9%
- Fold dissociation pH 5.8/pH 7.4 [6]: 9.5 fold
- Kd [7]: 0.28 nM
- koff [7]: 8.18e-05 s⁻¹
- kon [7]: 293000 M⁻¹ s⁻¹
- Dissociation (%) pH 5.8 [8]: 55.8%
B10: 3.2 H2-10 × L1-4 (antibody, V domains shown)
VH: B4 VH
VL: B4 VL with H24G, Y26H
notes: Histidine mutant of 3.2
